US20230406921A1 (MABWELL SHANGHAI BIOSCIENCE, published 2023)

B1: 140Hm2/hz140L (Table 2) (antibody, V domains shown)
VH: QVQLVQSGAEVKKPGASVKVSCKASGYKFTNYAMHWVRQAPGQRLEWMGYINPYNDGIKYNEKFTGRVTITRDTSASTAYMELSSLRSEDTAVYYCAREGDFYANYGRLGFAYWGQGTLVTVSS
VL: DIQMTQSPSSLSASVGDRVTITCRASQDITNYLNWYQQKPGKAPKLLIYYTSRLHSGVPSRFSGSGSGTDYTFTISSLQPEDIATYFCQQGDTFPRTFGGGTKVEIK
notes: also called hz140-Hm/hz140L
B2: 140Hm3/hz140L (Table 2) (antibody, V domains shown)
VH: QVQLVQSGAEVKKPGASVKVSCKASGYKFTNYVMSWVRQAPGQRLEWMGYINPYNDGIKYNEKFTGRVTITRDTSASTAYMELSSLRSEDTAVYYCAREGDFYANYGRLGFAYWGQGTLVTVSS
VL: DIQMTQSPSSLSASVGDRVTITCRASQDITNYLNWYQQKPGKAPKLLIYYTSRLHSGVPSRFSGSGSGTDYTFTISSLQPEDIATYFCQQGDTFPRTFGGGTKVEIK
notes: also called hz140-Hm/hz140L
B3: 140Hm4/hz140L (Table 2) (antibody, V domains shown)
VH: QVQLVQSGAEVKKPGASVKVSCKASGYKFTNYVMHWVRQAPGQRLEWMGWINPYNDGIKYNEKFTGRVTITRDTSASTAYMELSSLRSEDTAVYYCAREGDFYANYGRLGFAYWGQGTLVTVSS
VL: DIQMTQSPSSLSASVGDRVTITCRASQDITNYLNWYQQKPGKAPKLLIYYTSRLHSGVPSRFSGSGSGTDYTFTISSLQPEDIATYFCQQGDTFPRTFGGGTKVEIK
notes: also called hz140-Hm/hz140L
B4: 140Hm5/hz140L (Table 2) (antibody, V domains shown)
VH: QVQLVQSGAEVKKPGASVKVSCKASGYKFTNYVMHWVRQAPGQRLEWMGYINPGNDGIKYNEKFTGRVTITRDTSASTAYMELSSLRSEDTAVYYCAREGDFYANYGRLGFAYWGQGTLVTVSS
VL: DIQMTQSPSSLSASVGDRVTITCRASQDITNYLNWYQQKPGKAPKLLIYYTSRLHSGVPSRFSGSGSGTDYTFTISSLQPEDIATYFCQQGDTFPRTFGGGTKVEIK
notes: also called hz140-Hm/hz140L
B5: 140Hm6/hz140L (Table 2) (antibody, V domains shown)
VH: QVQLVQSGAEVKKPGASVKVSCKASGYKFTNYVMHWVRQAPGQRLEWMGYINPYNDGIKYNEKFQGRVTITRDTSASTAYMELSSLRSEDTAVYYCAREGDFYANYGRLGFAYWGQGTLVTVSS
VL: DIQMTQSPSSLSASVGDRVTITCRASQDITNYLNWYQQKPGKAPKLLIYYTSRLHSGVPSRFSGSGSGTDYTFTISSLQPEDIATYFCQQGDTFPRTFGGGTKVEIK
notes: also called hz140-Hm/hz140L
B6: 140Hm7/hz140L (Table 2) (antibody, V domains shown)
VH: QVQLVQSGAEVKKPGASVKVSCKASGYKFTNYVMHWVRQAPGQRLEWMGYINPYNDGIKYNEKFTGRVTITRDTSASTAYMELSSLRSEDTAVYYCAREGDFYANYGRLGFDYWGQGTLVTVSS
VL: DIQMTQSPSSLSASVGDRVTITCRASQDITNYLNWYQQKPGKAPKLLIYYTSRLHSGVPSRFSGSGSGTDYTFTISSLQPEDIATYFCQQGDTFPRTFGGGTKVEIK
notes: also called hz140-Hm/hz140L
B7: 140Hm8/hz140L (Table 2) (antibody, V domains shown)
VH: QVQLVQSGAEVKKPGASVKVSCKASGYKFTNYVMHWVRQAPGQRLEWMGYINPYNDAIKYNEKFTGRVTITRDTSASTAYMELSSLRSEDTAVYYCAREGDFYANYGRLGFAYWGQGTLVTVSS
VL: DIQMTQSPSSLSASVGDRVTITCRASQDITNYLNWYQQKPGKAPKLLIYYTSRLHSGVPSRFSGSGSGTDYTFTISSLQPEDIATYFCQQGDTFPRTFGGGTKVEIK
notes: also called hz140-Hm/hz140L
B8: hz140-Hm1/hz182-L (antibody, V domains shown)
VH: QVQLVQSGAEVKKPGASVKVSCKASGYTFTNYVMHWVRQAPGQRLEWMGYINPYNDGIKYNEKFTGRVTITRDTSASTAYMELSSLRSEDTAVYYCAREGDFYANYGRLGFAYWGQGTLVTVSS
VL: DIQMTQSPSSLSASVGDRVTITCRASQDISNYLNWYQQKPGKAPKLLLYYTSRLHSGVPSRFSGSGSGTDYTLTISSLQPEDFATYFCQQGAGRPYTFGGGTKVEIK
B9: hz140-Hm2/hz182-L (antibody, V domains shown)
VH: QVQLVQSGAEVKKPGASVKVSCKASGYKFTSYVMHWVRQAPGQRLEWMGYINPYNDGIKYNEKFTGRVTITRDTSASTAYMELSSLRSEDTAVYYCAREGDFYANYGRLGFAYWGQGTLVTVSS
VL: DIQMTQSPSSLSASVGDRVTITCRASQDISNYLNWYQQKPGKAPKLLLYYTSRLHSGVPSRFSGSGSGTDYTLTISSLQPEDFATYFCQQGAGRPYTFGGGTKVEIK
B10: hz140-Hm3/hz182-L (antibody, V domains shown)
VH: QVQLVQSGAEVKKPGASVKVSCKASGYKFTNYAMHWVRQAPGQRLEWMGYINPYNDGIKYNEKFTGRVTITRDTSASTAYMELSSLRSEDTAVYYCAREGDFYANYGRLGFAYWGQGTLVTVSS
VL: DIQMTQSPSSLSASVGDRVTITCRASQDISNYLNWYQQKPGKAPKLLLYYTSRLHSGVPSRFSGSGSGTDYTLTISSLQPEDFATYFCQQGAGRPYTFGGGTKVEIK
B11: hz140-Hm4/hz182-L (antibody, V domains shown)
VH: QVQLVQSGAEVKKPGASVKVSCKASGYKFTNYVMSWVRQAPGQRLEWMGYINPYNDGIKYNEKFTGRVTITRDTSASTAYMELSSLRSEDTAVYYCAREGDFYANYGRLGFAYWGQGTLVTVSS
VL: DIQMTQSPSSLSASVGDRVTITCRASQDISNYLNWYQQKPGKAPKLLLYYTSRLHSGVPSRFSGSGSGTDYTLTISSLQPEDFATYFCQQGAGRPYTFGGGTKVEIK
B12: hz140-Hm5/hz182-L (antibody, V domains shown)
VH: QVQLVQSGAEVKKPGASVKVSCKASGYKFTNYVMHWVRQAPGQRLEWMGWINPYNDGIKYNEKFTGRVTITRDTSASTAYMELSSLRSEDTAVYYCAREGDFYANYGRLGFAYWGQGTLVTVSS
VL: DIQMTQSPSSLSASVGDRVTITCRASQDISNYLNWYQQKPGKAPKLLLYYTSRLHSGVPSRFSGSGSGTDYTLTISSLQPEDFATYFCQQGAGRPYTFGGGTKVEIK
B13: hz140-Hm6/hz182-L (antibody, V domains shown)
VH: QVQLVQSGAEVKKPGASVKVSCKASGYKFTNYVMHWVRQAPGQRLEWMGYINPGNDGIKYNEKFTGRVTITRDTSASTAYMELSSLRSEDTAVYYCAREGDFYANYGRLGFAYWGQGTLVTVSS
VL: DIQMTQSPSSLSASVGDRVTITCRASQDISNYLNWYQQKPGKAPKLLLYYTSRLHSGVPSRFSGSGSGTDYTLTISSLQPEDFATYFCQQGAGRPYTFGGGTKVEIK
B14: hz140-Hm7/hz182-L (antibody, V domains shown)
VH: QVQLVQSGAEVKKPGASVKVSCKASGYKFTNYVMHWVRQAPGQRLEWMGYINPYNDGIKYNEKFQGRVTITRDTSASTAYMELSSLRSEDTAVYYCAREGDFYANYGRLGFAYWGQGTLVTVSS
VL: DIQMTQSPSSLSASVGDRVTITCRASQDISNYLNWYQQKPGKAPKLLLYYTSRLHSGVPSRFSGSGSGTDYTLTISSLQPEDFATYFCQQGAGRPYTFGGGTKVEIK
B15: hz140-Hm8/hz182-L (antibody, V domains shown)
VH: QVQLVQSGAEVKKPGASVKVSCKASGYKFTNYVMHWVRQAPGQRLEWMGYINPYNDGIKYNEKFTGRVTITRDTSASTAYMELSSLRSEDTAVYYCAREGDFYANYGRLGFDYWGQGTLVTVSS
VL: DIQMTQSPSSLSASVGDRVTITCRASQDISNYLNWYQQKPGKAPKLLLYYTSRLHSGVPSRFSGSGSGTDYTLTISSLQPEDFATYFCQQGAGRPYTFGGGTKVEIK
B16: hz140-Hm9/hz182-L (antibody, V domains shown)
VH: QVQLVQSGAEVKKPGASVKVSCKASGYKFTNYVMHWVRQAPGQRLEWMGYINPYNDAIKYNEKFTGRVTITRDTSASTAYMELSSLRSEDTAVYYCAREGDFYANYGRLGFAYWGQGTLVTVSS
VL: DIQMTQSPSSLSASVGDRVTITCRASQDISNYLNWYQQKPGKAPKLLLYYTSRLHSGVPSRFSGSGSGTDYTLTISSLQPEDFATYFCQQGAGRPYTFGGGTKVEIK
B17: hz140-Hm10/hz182-L (antibody, V domains shown)
VH: QVQLVQSGAEVKKPGASVKVSCKASGYKFTNYVMHWVRQAPGQRLEWMGYINPYNEGIKYNEKFTGRVTITRDTSASTAYMELSSLRSEDTAVYYCAREGDFYANYGRLGFAYWGQGTLVTVSS
VL: DIQMTQSPSSLSASVGDRVTITCRASQDISNYLNWYQQKPGKAPKLLLYYTSRLHSGVPSRFSGSGSGTDYTLTISSLQPEDFATYFCQQGAGRPYTFGGGTKVEIK
B18: hz140-Hm11/hz182-L (antibody, V domains shown)
VH: QVQLVQSGAEVKKPGASVKVSCKASGYKFTNYVMSWVRQAPGQRLEWMGYINPYNDAIKYNEKFTGRVTITRDTSASTAYMELSSLRSEDTAVYYCAREGDFYANYGRLGFAYWGQGTLVTVSS
VL: DIQMTQSPSSLSASVGDRVTITCRASQDISNYLNWYQQKPGKAPKLLLYYTSRLHSGVPSRFSGSGSGTDYTLTISSLQPEDFATYFCQQGAGRPYTFGGGTKVEIK
B19: hz140-Hm12/hz182-L (antibody, V domains shown)
VH: QVQLVQSGAEVKKPGASVKVSCKASGYTFTNYVMSWVRQAPGQRLEWMGYINPYNDAIKYNEKFTGRVTITRDTSASTAYMELSSLRSEDTAVYYCAREGDFYANYGRLGFAYWGQGTLVTVSS
VL: DIQMTQSPSSLSASVGDRVTITCRASQDISNYLNWYQQKPGKAPKLLLYYTSRLHSGVPSRFSGSGSGTDYTLTISSLQPEDFATYFCQQGAGRPYTFGGGTKVEIK

What was measured:
[1] = biological target: T1, recombinant antigen of the extracellular region of CD47 (Sino Biological, Cat: 12283-H08H) (human, UniProt Q08722 19-139); assay: Fortebio BLI, recombinant CD47 extracellular region
T1 construct: extracellular domain; also called recombinant CD47 extracellular region; CD47 recombinant protein
T1 sequence (Q08722 19-139 limits assumed): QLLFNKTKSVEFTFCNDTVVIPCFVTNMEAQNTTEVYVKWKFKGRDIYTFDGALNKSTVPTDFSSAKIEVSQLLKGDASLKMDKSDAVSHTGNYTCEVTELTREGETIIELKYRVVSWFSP

[2] = biological target: T1, recombinant antigen of the …; assay: Fortebio BLI, antibody on AHC sensor, CD47 extracellular region 100 nM;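 note: antibody held on the sensor through anti-human Fc capture, CD47 antigen in solution, association and dissociation phases each lasting 300 s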
Protocol: The affinity between the obtained mutant antibody and the CD47 recombinant protein was determined by Fortebio. The antibody was immobilized on the surface of a sensor with the anti-human Fc capture antibody (AHC Sensor), and reacted with the recombinant antigen of the extracellular region of CD47 (with a working concentration of 100 nM) in the liquid phase. The duration for binding and dissociation was both 300 seconds. The kinetic parameters were determined.

Row | Binder | Kd [1] [nM] | koff [1] [s⁻¹] | kon [1] [M⁻¹ s⁻¹] | Kd [2] [nM] | koff [2] [s⁻¹] | kon [2] [M⁻¹ s⁻¹]
1 | B1 | 2.67 | 0.00071 | 266000 | – | – | –
2 | B2 | 5.12 | 0.00103 | 201000 | – | – | –
3 | B3 | 6.17 | 0.00216 | 350000 | – | – | –
4 | B4 | 20.8 | 0.00467 | 224000 | – | – | –
5 | B5 | 22.6 | 0.00707 | 313000 | – | – | –
6 | B6 | 61.4 | 0.0131 | 213000 | – | – | –
7 | B7 | 3.87 | 0.00094 | 243000 | – | – | –
8 | B8 | – | – | – | 1.67 | 0.000542 | 325000
9 | B9 | – | – | – | 1.71 | 0.000541 | 317000
10 | B10 | – | – | – | 10.3 | 0.00308 | 299000
11 | B11 | – | – | – | 5.97 | 0.00171 | 286000
12 | B12 | – | – | – | 6.82 | 0.00103 | 151000
13 | B13 | – | – | – | 8.55 | 0.00316 | 370000
14 | B14 | – | – | – | 61.8 | 0.00767 | 124000
15 | B15 | – | – | – | 42.5 | 0.00907 | 213000
16 | B16 | – | – | – | < 0.001 | < 1e-07 | 223000
17 | B17 | – | – | – | < 0.001 | < 1e-07 | 206000
18 | B18 | – | – | – | 6.53 | 0.0017 | 260000
19 | B19 | – | – | – | 14.7 | 0.00328 | 224000
